{
  "source": "patent US20210246217A1",
  "about": "(LEADARTIS S L, published 2021)",
  "molecules": {"B1": {"name": "mouse 4-1BB:hFc chimera (m4-1BB) (Fc fusion, UniProt P20334 24-187, looked up)", "chain": "VQNSCDNCQPGTFCRKYNPVCKSCPPSTFSSIGGQPNCNICRVCAGYFRFKKFCSSTHNAECECIEGFHCLGPQCTRCEKDCRPGQELTKQGCKTCSLGTFNDQNGTGVCRPWTNCSLDGRSVLKTGTTEKDVVCGPPVVSFSPSTTISVTPEGGPGGHSLQVL", "notes": "Bought from R&D Systems; also called murine 4-1BB in fusion with human Fc; not shown: human Fc"}},
  "key": {"[1]": {"molecular_target": "murine 4-1BB on the cell surface (mouse) (UniProt P20334)", "assay": "cell-based or functional assay"}, "[2]": {"molecular_target": "T1, recombinant mouse TNFSF9 (4-1BBL) (mouse, UniProt P41274 104-309, limits assumed)", "T1 construct": "It was detected through a tag in FACS and carried the CF488A label in RICS; also called m4-1BBL; recombinant soluble mouse 4-1BBL", "T1 sequence (looked up)": "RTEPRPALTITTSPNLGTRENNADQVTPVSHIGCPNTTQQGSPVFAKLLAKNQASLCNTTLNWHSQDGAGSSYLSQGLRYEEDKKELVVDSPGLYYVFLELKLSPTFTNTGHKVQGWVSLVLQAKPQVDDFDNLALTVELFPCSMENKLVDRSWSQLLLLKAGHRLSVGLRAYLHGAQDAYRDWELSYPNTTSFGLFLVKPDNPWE", "assay": "competition ELISA on immobilized m4-1BB", "experimental": "Both m4-1BB (3 μg/ml) or hEGFR (5 μg/ml) were immobilized on Maxisorp ELISA plates (NUNC Brand Products, Roskilde, Denmark) overnight at 4° C. After washing and blocking with 200 μl PBS-5% BSA, 100 μl of conditioned media or purified protein solution at 1 μg/ml were added and incubated for 1 hour at room temperature. The wells were washed for three times with PBS0.05% Tween-20, and 100 μl of anti-c-myc mAh or anti-FLAG mAh were added for 1 hour incubation at room temperature. The plate was washed as above described and 100 μl of HRP-conjugated goat anti-mouse IgG were added to each well. Afterwards, the plate was washed and developed using OPD (Sigma-Aldrich). For competition ELISA, m4-1BB (3 μg/ml) was immobilized overnight at 4° C. After washing and blocking, recombinant m4-1BBL was added at desired concentration to the wells for 1 hour. Afterwards, purified antibody solution was serially diluted in blocking buffer, added to the wells and incubated for 1 hour at room temperature. Following standard washing steps, anti-FLAG mAh solution was added for 1 hour. After washing HRP-conjugated goat anti-mouse IgG was added and developed using OPD."}, "human CEA (hCEA)": {"molecular_target": "T2, human CEA (hCEA) (human, UniProt P06731 35-685, limits assumed)", "T2 construct": "also called carcinoembryonic antigen", "T2 sequence (looked up)": "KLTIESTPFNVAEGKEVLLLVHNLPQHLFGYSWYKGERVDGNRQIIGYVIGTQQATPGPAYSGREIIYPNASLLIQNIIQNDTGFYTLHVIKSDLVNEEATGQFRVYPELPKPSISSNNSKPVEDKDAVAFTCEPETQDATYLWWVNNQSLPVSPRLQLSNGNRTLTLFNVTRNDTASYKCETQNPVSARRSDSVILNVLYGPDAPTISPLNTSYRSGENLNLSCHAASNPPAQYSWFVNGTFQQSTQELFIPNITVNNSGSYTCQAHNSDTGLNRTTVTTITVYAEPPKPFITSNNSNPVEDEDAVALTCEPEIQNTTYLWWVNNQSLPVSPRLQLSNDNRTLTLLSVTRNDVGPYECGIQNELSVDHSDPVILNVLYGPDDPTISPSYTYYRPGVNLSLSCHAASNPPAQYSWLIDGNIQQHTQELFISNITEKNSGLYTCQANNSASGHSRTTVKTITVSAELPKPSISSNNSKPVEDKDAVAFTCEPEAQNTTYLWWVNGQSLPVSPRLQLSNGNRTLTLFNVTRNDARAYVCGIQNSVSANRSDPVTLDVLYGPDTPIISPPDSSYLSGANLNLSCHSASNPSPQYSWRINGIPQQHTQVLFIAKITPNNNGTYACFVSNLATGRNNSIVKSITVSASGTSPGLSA", "assay": "BLI, m4-1BB-coated biosensors, hCEA in solution", "experimental": "FIG. 26. Functional characterization of purified 1D8^{N/C}CEA.1 trimerbody. Biolayer interferometry (BLI)-derived sensorgrams from the interactions between immobilized m4-1BB and 1D8^{N/C}CEA. 1 at 4 or 2 nM. Experimental responses are traced in black, and fitting curves are in gray (A). […] 1 bispecificity towards biosensors coated with m4-1BB and hCEA in solution (B and C). Following association with either 1D8^{N/C}CEA.1 or 1D8^N18 (sample indicated with arrows) or kinetics buffer only (sample indicated with arrows), biosensors were transferred into 50 nM of hCEA (black and red) or kinetics buffer only (blue and green).\nThe ability of 1D8^{N/C}CEA.1 to bind biosensor-immobilized m4-1BB and hCEA in solution at the same time was investigated using biolayer interferometry (BLI) on an Octet RED96 system (Fortebio, Menlo Park, Calif., USA). AR2G biosensors (Fortebio) were activated using s-NHS and EDC, and then coated with 10 μg/mL m4-1BB in 10 mM sodium acetate at pH 6 for 20 minutes, followed by quenching with ethanolamine. After 10 minutes of equilibration in kinetics buffer (PBS with 0.1% BSA and 0.05% Tween20), the coated biosensors were incubated in kinetics buffer containing 4 nM of 1D8^N18, 1D8^{N/C}CEA. 1, or only kinetics buffer for one hour. […]"}},
  "data": [
    {"molecule": "rat IgG2a anti-mouse 4-1BB (clone 1D8) (antibody)", "values": [
      {"measurement": "lateral mobility at the plasma membrane (diffusion coefficient, RICS), before clustering", "setting": "[1]", "result": 1.5, "unit": "µm^2/sec"},
      {"measurement": "lateral mobility at the plasma membrane (diffusion coefficient, RICS), in clusters", "setting": "[1]", "result": 0.35, "unit": "µm^2/sec"}
    ]},
    {"molecule": "B1", "values": [
      {"measurement": "binding result", "setting": "[2]", "result": "binds"},
      {"measurement": "binding result", "setting": "human CEA (hCEA)", "result": "no binding (tested: 50 nM of hCEA)"}
    ]}
  ]
}
